Measurements: US5968751A, “Method for detecting the presence of protein C antibody in a fluid sample” (The Scripps Research Institute, priority 1997, dated 1999)
No end group written: not given here.

Legend:
APC [1] = biological target: T1, APC (Homo sapiens, UniProt P04070); set-up: Protein C consists of a 155 amino acid residue light chain and a 262 amino acid residue heavy chain; from tissue; alpha1-AT mutant from Transgene, Strasbourg; conditions: Heeb et al. 1990; cited from earlier work
Target sequence in this assay (P04070 43-197): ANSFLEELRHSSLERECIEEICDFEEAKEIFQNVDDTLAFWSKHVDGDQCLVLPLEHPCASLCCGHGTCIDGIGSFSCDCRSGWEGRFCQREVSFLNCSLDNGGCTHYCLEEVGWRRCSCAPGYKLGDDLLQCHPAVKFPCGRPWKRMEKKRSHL
Target sequence in this assay (P04070 212-461): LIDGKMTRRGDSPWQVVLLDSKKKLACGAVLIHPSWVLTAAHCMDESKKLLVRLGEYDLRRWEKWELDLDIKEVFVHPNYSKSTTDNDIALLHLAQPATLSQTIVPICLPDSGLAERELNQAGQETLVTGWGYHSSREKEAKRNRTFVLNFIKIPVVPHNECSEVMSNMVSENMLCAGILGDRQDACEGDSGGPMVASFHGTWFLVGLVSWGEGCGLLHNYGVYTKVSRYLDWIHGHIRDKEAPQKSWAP

APC [2] = biological target: T1, APC; experiment: Xa-1-stage coagulation assay, inhibition of APC anticoagulant activity; format: biochemical; set-up: Protein C consists of a 155 amino acid residue light chain and a 262 amino acid residue heavy chain; from tissue; host or cells: human plasma factor IX concentrate; conditions: final peptide concentration 500 μM; NHP; 0 = no observable effect +10%
Description: For testing the inhibition of the synthetic peptides on APC activity described above, Xa-1-stage coagulation assays were also performed as described. See Seegers et al., Thrombosis Res., 13:233-243 (1978); Marlar et al., supra; and Walker et al., J. Biol. Chem., 265:1484-1489 (1990). PC heavy chain-derived peptides listed below in Table 6 and PC light chain-derived peptides listed below in Table 7 were prepared as described above and separately admixed for a final concentration of 2 mM with 120 nM APC in 100 μl of TBS-BSA at pH 7.4 to form separate peptide-APC admixtures. The resulting admixtures were maintained for ten minutes at 37° C. Separate aliquots of peptides maintained under the same conditions in the absence of APC served as controls for the inhibitory effect of synthetic peptides on APC anticoagulant activity. After the maintenance period, 100 μl of NHP and 100 μl of 200 μg/ml of rabbit brain cephalin (Sigma) were admixed into each peptide admixture and maintained for 200 seconds at 37° C. to form pre-coagulation admixtures. In some experiments, Factor VIII deficient plasma (George King Bio-Medical, Inc.) was used in the place of NHP to determine the effect of Factor VIII on the assay system. Coagulation was then initiated by the admixture of 100 μl of 0.62 nM human activated Factor X (Xa) (Enzyme Research Laboratories, Southbend, Ind.) in TBS-BSA containing 30 mM CaCl2 prewarmed to 37° C. to each of the pre-coagulation admixtures.
The time for clot formation was measured by an Electra 700 Automatic Coagulation Timer (Medical Laboratory Automation, Inc., Mount Vernon, N.Y.). Each peptide's effect was determined in duplicate. The results of the inhibition of APC anticoagulant activity by synthetic peptides as measured in Xa-1-stage coagulation assays are presented in Tables 6 and 7 below with the APTT assay results and are presented as the mean values obtained with APTT assays. Data for results with PC heavy chain-derived peptides are shown in Table 6 and data for results with PC light chain-derived peptides are shown in Table 7.
The results of inhibition of APC anticoagulant activity by PC light chain-derived peptides in a Xa-1 stage coagulation assay are shown in Table 7. The assay was performed in the presence of NHP. Peptides used in the assay were prepared as described in Example 1 and are listed in Table 7 by their corresponding residue positions in native PC protein (SEQ ID NO 1). For all peptides except PC142-155 used in the Xa-1 stage assays listed in Table 7, cysteine residues in the native PC amino acid residue sequence were substituted by either serine or glycine in the synthesized peptide. This was done to prevent multiple disulfide formation and subsequent potential polymerization among peptides with multiple cysteines. […]
Target sequence in this assay (P04070 43-197 limits assumed): as the sequence (P04070 43-197) above
Target sequence in this assay (P04070 212-450 limits assumed): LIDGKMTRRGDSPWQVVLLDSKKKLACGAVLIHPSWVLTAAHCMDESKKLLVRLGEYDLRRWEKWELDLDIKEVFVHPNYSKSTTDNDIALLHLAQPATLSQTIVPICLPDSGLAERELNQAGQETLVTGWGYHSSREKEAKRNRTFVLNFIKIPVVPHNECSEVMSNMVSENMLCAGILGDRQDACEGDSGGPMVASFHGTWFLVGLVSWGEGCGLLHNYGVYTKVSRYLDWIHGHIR

Row | Substance | increase in the association rate for APC by substitution of Met358 by Arg (APC [1]) | inhibition at 500 µM (APC [2]) [%]
1 | α1 -AT: recombinant mutant (Arg358)-α1-antitrypsin, macromolecular pseudo-substrate inhibitor of APC (Transgene) | over 4400 fold | 
2 | HPAVKFPSGRPWKRM-NH2 (C-terminus assumed) [PC134-148] |  | 66
